{"source": "patent WO2006085967A2", "about": "(dated 2006)", "binders": {"B1": {"name": "E258Y alemtuzumab (antibody)", "chain 1": "not shown", "chain 2": "not shown"}, "B2": {"name": "S304T alemtuzumab (antibody)", "chain 1": "not shown", "chain 2": "not shown"}, "B3": {"name": "E283H alemtuzumab (antibody)", "chain 1": "not shown", "chain 2": "not shown"}, "B4": {"name": "WT alemtuzumab (antibody)", "chain 1": "not shown", "chain 2": "not shown"}, "B5": {"name": "V284E alemtuzumab (antibody)", "chain 1": "not shown", "chain 2": "not shown"}, "B6": {"name": "E272R alemtuzumab (antibody)", "chain 1": "not shown", "chain 2": "not shown"}, "B7": {"name": "T260H alemtuzumab (antibody)", "chain 1": "not shown", "chain 2": "not shown"}}, "key": {"[1]": {"molecular_target": "T1, extracellular region of human V158 FcγRIIIa with C-terminal 6x His-tag and GST-tag (human, UniProt P08637 17-208)", "T1 construct": "extracellular domain; on glutathione acceptor beads (AlphaScreen) or immobilized on the SPR chip; also called Val158 FcγRIIIa; V158 FcγRllla; not shown: 6x His-tag; GST-tag", "experiment": "SPR; fold affinity vs WT"}, "[2]": {"molecular_target": "T1, extracellular region of human V158 …", "experiment": "AlphaScreen competition; fold affinity vs WT"}, "[3]": {"molecular_target": "T1, extracellular region of human V158 …", "experiment": "only one value in the row"}, "[4]": {"molecular_target": "T1, extracellular region of human V158 …", "experiment": "SPR; receptor immobilized, antibody flowed"}, "[5]": {"molecular_target": "T1, extracellular region of human V158 …", "experiment": "SPR; fold affinity vs WT (read as two values, 1 and 1.86; could be 11.86)"}, "[6]": {"molecular_target": "T1, extracellular region of human V158 …", "experiment": "AlphaScreen competition; fold affinity vs WT (read as two values, 1 and 1.86; could be 11.86)"}}, "data": [{"binder": "B1", "values": [{"measurement": "Fold WT (SPR)", "setting": "[1]", "result": 1.77, "unit": "fold"}, {"measurement": "Fold WT (AlphaScreen)", "setting": "[2]", "result": 0.64, "unit": "fold"}]}, {"binder": "B2", "values": [{"measurement": "Fold WT (AlphaScreen or SPR)", "setting": "[3]", "result": 12.8, "unit": "fold"}]}, {"binder": "B3", "values": [{"measurement": "Fold WT (AlphaScreen or SPR)", "setting": "[3]", "result": 2.31, "unit": "fold"}]}, {"binder": "B4", "values": [{"measurement": "Kd", "setting": "[4]", "result": 68, "unit": "nM"}]}, {"binder": "B5", "values": [{"measurement": "Fold WT (AlphaScreen or SPR)", "setting": "[3]", "result": 1.51, "unit": "fold"}]}, {"binder": "B6", "values": [{"measurement": "Fold WT (AlphaScreen or SPR)", "setting": "[3]", "result": 1.38, "unit": "fold"}]}, {"binder": "B7", "values": [{"measurement": "Fold WT (SPR)", "setting": "[5]", "result": 1.86, "unit": "fold"}, {"measurement": "Fold WT (AlphaScreen)", "setting": "[6]", "result": 1, "unit": "fold"}]}]}
